Self-cleavage data for 167 variants are collected here from the RNAGym collection of RNA variant scans (doi:10.7554/elife.90254).

B1: LINE1-full (parent)
chain: UACGUAGGUGGUUUUCCCCUGAUAGUGCUAAGGGGGCCUGGAAGUUUGGACUGGGCAGAGCUCAACACAGCGUGGCAAAGUGGCUGUGGCUAGACUGCCUCUCUGGAUUCCUCGUCACUCAGCAGGGCAUCUCUGAGAGAAAUGCC
B2: OR4K15 (parent)
chain: GUUAACGGUCAUAGGCCAUGGAAACUAGGAGCACCAUUUCGCUGCCAGUGAAGAAAUGAACAAAGAAAAUCUGGGCCAGGCAGGCAUCAAAAGAAAUAGUCUUGCGCUCAACCAGAAAGUCUGUAAUCAUUUUAAGGGUA

The variants in one data set derive from B1. The experiment in a line: self-cleavage, relative activity (ratio to wild type); higher = more cleavage; in vitro, sequencing; the parent is a self-cleaving ribozyme.
For the variant U134A A142G, the self-cleavage was found to be 1.18. C128U A129G: the self-cleavage was 1.65. On the same count and under the same terms, as for C123U A141G, the figure is 1.24. Same read-out and setting: as for A129G C146U, the figure is 1.59; as for G127U U143C, 1.66; as for G122A A129G, 1.19.

Take U130A U134C: the self-cleavage turned out to be 1.84. On the same count and under the same terms, next, U130A U134A: 1.33. The same measure, in the same setting: next, A124G G125A: 0.75. The same measure, in the same setting: next, C133U A141G: 1.4; A140G U143A: 0.79; C120A A140G: 1.32. In the case of A142G U143G, the self-cleavage is 0.16.

As to A121C U143C, the self-cleavage is 1.99. With U130C A142G, the self-cleavage was 1.37. On the same count and under the same terms, as for U130C A142U, the figure is 1.6; as for C120U U132C, 1.56; as for C131U U143G, 0.59. With U130A A138G, the self-cleavage amounted to 1.31. For the variant U130A A138U, the self-cleavage came to 1.64. In the case of U132G A141G, the self-cleavage was found to be 1.22. On the same count and under the same terms, next, A121G G139A: 1.06; A124C A136G: 1.15; A124G A141G: 1.39. Still for that read-out and setting: as for U134C U143A, the figure is 1.37. Same read-out and setting: as for U134C U143C, the figure is 1.21; as for G125A C146U, 1.36. As for C120U U134C, the self-cleavage was 1.27. Still for that read-out and setting: next, U134C A140U: 1.02; A124U U132A: 1.56; C145U: 1.32. The same measure, in the same setting: as for C145G, the figure is 0.55; as for C145A, 0.95; as for A129C U134C, 1.54.

With A129C U134A, the self-cleavage amounted to 1.59. On to U132A G139A, for which the self-cleavage came to 1.33. On the same count and under the same terms, next, G127A A140U: 1.26; A140G A141G: 0.53; A129G G135A: 1.63.

For the variant A121G U132A, the self-cleavage is 1.86. A121C A141G: the self-cleavage worked out at 1.99.

For the variant G122U A142G, the self-cleavage worked out at 1.52. On the same count and under the same terms, next, A121U G137A: 2.09. Same read-out and setting: next, A124G A129U: 1.06. The same measure, in the same setting: next, A124G A129G: 0.96; A121C A142G: 1.1. As for U130A U143C, the self-cleavage came to 1.25. Same read-out and setting: as for A129C U132C, the figure is 0.96. On the same count and under the same terms, next, G122C A140C: 1.71. The same measure, in the same setting: next, G125U A142G: 1.33.

With A142G C145U, the self-cleavage stood at 1.11.

Take A129G A141C: the self-cleavage was 2.06. Take C123U A129G: the self-cleavage was found to be 1.37. The same measure, in the same setting: as for C133U A138C, the figure is 1.74; as for C128A U130C, 1.11. As to A129U A141G, the self-cleavage amounted to 1.34. Still for that read-out and setting: next, U130A A142G: 1.48; U132C U143A: 1.35; U132C U143C: 1.24. On the same count and under the same terms, next, C133A C145A: 1.51. On the same count and under the same terms, next, A121C A138G: 2.34; U132C A136G: 1.47; U132C A136U: 1.46. Take A121G U134A: the self-cleavage came out at 1.32. Still for that read-out and setting: as for G137A A138G, the figure is 1.38. As to A124U C131A, the self-cleavage turned out to be 0.96.

On to A129U U134C, for which the self-cleavage is 1.22. On the same count and under the same terms, as for A129U U134A, the figure is 1.37; as for A129U U134G, 1.53.

In the case of G122U A136U, the self-cleavage came to 1.31. Take A124G C146A: the self-cleavage is 0.84. U130C C133U: the self-cleavage is 1.42. The same measure, in the same setting: as for A140U A142G, the figure is 1.73. The same measure, in the same setting: as for A141C U143A, the figure is 1.79; as for A129C G135A, 2.11. On the same count and under the same terms, as for A141C A142C, the figure is 0.71; as for U134C A142G, 1.42. On to A121U U143C, for which the self-cleavage stood at 1.59. Still for that read-out and setting: as for U134A U143A, the figure is 0.77; as for U134A U143C, 0.63; as for G125U A138G, 2.25. Still for that read-out and setting: next, A121G C123U: 1.07; A140G C145U: 0.62. The same measure, in the same setting: as for A140G C145A, the figure is 1.28; as for G127U A140G, 1.27. As to A136G U143C, the self-cleavage amounted to 1.47. With A121C G127U, the self-cleavage was 1.44. Consider A138U A140G, for which the self-cleavage is 1.2.

With A141G U143C, the self-cleavage was 1.31. On the same count and under the same terms, next, C120U G126A: 2.01. Still for that read-out and setting: next, C123U A124G: 1.25. Same read-out and setting: next, A121U G126U: 1.5. For A124C U132C, the self-cleavage amounted to 1.11. In the case of C120U U130A, the self-cleavage turned out to be 1.58. Turning to A129U A142U, the self-cleavage amounted to 2.13.

In the case of A124C U134C, the self-cleavage is 2.04. Turning to A129G A142G, the self-cleavage stood at 1.67. As to A129U C133A, the self-cleavage turned out to be 1.26. The same measure, in the same setting: next, G122C U143C: 1.57. The same measure, in the same setting: as for U134C A136G, the figure is 1.75; as for U134C A136U, 1.26; as for A140U C145U, 1.63. On the same count and under the same terms, as for A129G U132A, the figure is 1.54; as for G127A U130C, 1.31. As for G125A A138G, the self-cleavage was found to be 1.01. Turning to A124U G127U, the self-cleavage was 1.62. Still for that read-out and setting: as for A124G G144C, the figure is 0.68. For the variant A121U G125U, the self-cleavage was found to be 1.4. With C123U A142G, the self-cleavage was 1.32. Take G127A C145A: the self-cleavage was determined as 1.32. Still for that read-out and setting: next, U130A C145U: 1.79; G127A C128U: 1.13.

Turning to U132C C133U, the self-cleavage stood at 1.4.

Turning to U132C C133A, the self-cleavage came out at 1.14. Same read-out and setting: next, C133U A142G: 1.14.

Consider A124U U130A, for which the self-cleavage turned out to be 1.7. On the same count and under the same terms, next, A124U U130C: 1.66; A121U C133U: 1.8.

Take G135A A140G: the self-cleavage is 1.18.

As for A124C G137U, the self-cleavage worked out at 0.75. As to A129U A140U, the self-cleavage was 0.88.

As for A141G C146U, the self-cleavage worked out at 1.31. For A138G A141G, the self-cleavage amounted to 1.25. Regarding A138G A141U, the self-cleavage amounted to 1.43. On the same count and under the same terms, as for A124U A129G, the figure is 1.72; as for G125A A140U, 0.61. On the same count and under the same terms, next, A140G G144A: 0.92; G125U A136G: 0.79. On the same count and under the same terms, as for U132C A141U, the figure is 0.63. Consider U134A A138U, for which the self-cleavage came out at 1.72. On the same count and under the same terms, as for U134A A138G, the figure is 1.63. On the same count and under the same terms, next, U130C A141G: 1.55; A140G A142C: 1.4; A140G A142G: 1.17.

Turning to C131G A142G, the self-cleavage was 0.36. As for C133A A140C, the self-cleavage was found to be 1.3. On the same count and under the same terms, as for A141U A142G, the figure is 1.79. On the same count and under the same terms, as for G126A U130C, the figure is 1.41; as for A124C U143A, 1.24; as for A124C U143C, 2.43.

With A121U A136G, the self-cleavage was found to be 1.47. On the same count and under the same terms, as for A121U A136U, the figure is 1.07. Still for that read-out and setting: as for U132C A142G, the figure is 1.49; as for G126C A129G, 2.02; as for A136G A142C, 1.08.

For G126A A140G, the self-cleavage turned out to be 1.49.

On to A136C U143A, for which the self-cleavage turned out to be 1.51. Still for that read-out and setting: as for U130C C131U, the figure is 1.28. On the same count and under the same terms, next, C120U A141U: 0.95. Still for that read-out and setting: next, A138U A142C: 2.14; A124U A136G: 1.43; U143A C145U: 1.39. On to U130A A141U, for which the self-cleavage was 1.13. As to U130A A141G, the self-cleavage was determined as 1.46.

In a further data set the parent is B2. Described as above.
Turning to G1C A135G, the self-cleavage amounted to 1.85. The same measure, in the same setting: next, G1A: 1.55; G1C A111G: 0.01. The same measure, in the same setting: as for G1A U43C, the figure is 2.15; as for G1A U37C, 1.61. Still for that read-out and setting: as for G1A U102G, the figure is 1.23; as for G1C A91G, 0.65; as for G1A A13C, 1.66.

With G1A A13G, the self-cleavage turned out to be 1.29. Consider G1A A114U, for which the self-cleavage came to 0.26. On the same count and under the same terms, next, G1A A114G: 1.32. Still for that read-out and setting: as for G1A A59G, the figure is 1.36. Same read-out and setting: as for G1A A64G, the figure is 2.27.
